Measurements reported in PMC2627783 (Biochemistry, 2008).

Target: T1, HscA (UniProt P0A6Z1 1-616)
T1 sequence (looked up): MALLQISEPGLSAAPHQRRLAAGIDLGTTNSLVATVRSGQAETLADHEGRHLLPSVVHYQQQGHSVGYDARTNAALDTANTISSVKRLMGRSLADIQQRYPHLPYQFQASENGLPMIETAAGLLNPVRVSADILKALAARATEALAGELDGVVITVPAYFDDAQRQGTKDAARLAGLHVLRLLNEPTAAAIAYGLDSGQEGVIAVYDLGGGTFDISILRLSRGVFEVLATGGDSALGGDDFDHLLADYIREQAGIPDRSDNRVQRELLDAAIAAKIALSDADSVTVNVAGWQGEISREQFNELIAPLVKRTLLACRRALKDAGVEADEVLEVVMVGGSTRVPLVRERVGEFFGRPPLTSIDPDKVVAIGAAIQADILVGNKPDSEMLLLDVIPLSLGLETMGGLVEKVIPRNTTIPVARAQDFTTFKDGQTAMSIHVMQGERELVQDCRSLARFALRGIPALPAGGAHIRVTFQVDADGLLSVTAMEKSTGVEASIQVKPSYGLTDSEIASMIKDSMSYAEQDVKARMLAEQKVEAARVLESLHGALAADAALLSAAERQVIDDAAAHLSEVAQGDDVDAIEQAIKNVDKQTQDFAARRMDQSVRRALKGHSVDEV
Test: cell-based or functional assay

HscA ATPase activity, 23 °C, in the absence of IscU: maximal stimulation: 4.4 fold
B1: HscB (wild type) (natural protein, E. coli, UniProt P0A6L9 1-171, looked up)
chain: MDYFTLFGLPARYQLDTQALSLRFQDLQRQYHPDKFASGSQAEQLAAVQQSATINQAWQTLRHPLMRAEYLLSLHGFDLASEQHTVRDTAFLMEQLELREELDEIEQAKDEARLESFIKRVKKMFDTRHQLMVEQLDNETWDAAADTVRKLRFLDKLRSSAEQLEEKLLDF
